Consider 4 molecules from PMC11864811, “Human CST Stimulates Base Excision Repair to Prevent the Accumulation of Oxidative DNA Damage” (Journal of molecular biology, 2024).

Assay [1] concerns the target Recombinant human Pol β (6X-His tagged) (human, UniProt P06746 1-335). In words: cell-based or functional assay.
Assay [2] has as its target Recombinant human OGG1 (6X-His tagged) (human, UniProt O15527 1-345). Kind of assay: cell-based or functional assay.

Recombinant human OGG1 (6X-His tagged), sequence (O15527 whole entry): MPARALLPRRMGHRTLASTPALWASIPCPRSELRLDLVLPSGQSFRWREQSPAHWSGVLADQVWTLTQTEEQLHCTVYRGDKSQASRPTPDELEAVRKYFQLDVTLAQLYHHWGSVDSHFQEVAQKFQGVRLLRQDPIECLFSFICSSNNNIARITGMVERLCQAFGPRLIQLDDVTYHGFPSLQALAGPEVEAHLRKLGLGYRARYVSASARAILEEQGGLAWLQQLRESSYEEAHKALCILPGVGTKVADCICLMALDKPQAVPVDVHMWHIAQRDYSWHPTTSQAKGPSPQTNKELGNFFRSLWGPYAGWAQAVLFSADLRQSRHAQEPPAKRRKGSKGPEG

B1: FLAG-TEN1 (natural protein)
chain: MMLPKPGTYYLPWEVSAGQVPDGSTLRTFGRLCLYDMIQSRVTLMAQHGSDQHQVLVCTKLVEPFHAQVGSLYIVLGELQHQQDRGSVVKARVLTCVEGMNLPLLEQAIREQRLYKQERGGSQ
As for B1, in assay [1], the “Pol β DNA synthesis on a random sequence 66 nt gapped substrate, fold increase with purified TEN1” value was approximately 3 fold and the “Pol β dRP lyase activity, fold increase with purified TEN1 (250-1500 nM; value at the highest concentration)” value is 1.5 fold.

B2: FLAG-CTC1 (natural protein, human, UniProt Q2NKJ3 1-1217, looked up)
chain: MAAGRAQVPSSEQAWLEDAQVFIQKTLCPAVKEPNVQLTPLVIDCVKTVWLSQGRNQGSTLPLSYSFVSVQDLKTHQRLPCCSHLSWSSSAYQAWAQEAGPNGNPLPREQLLLLGTLTDLSADLEQECRNGSLYVRDNTGVLSCELIDLDLSWLGHLFLFPRWSYLPPARWNSSGEGHLELWDAPVPVFPLTISPGPVTPIPVLYPESASCLLRLRNKLRGVQRNLAGSLVRLSALVKSKQKAYFILSLGRSHPAVTHVSIIVQVPAQLVWHRALRPGTAYVLTELRVSKIRGQRQHVWMTSQSSRLLLLKPECVQELELELEGPLLEADPKPLPMPSNSEDKKDPESLVRYSRLLSYSGAVTGVLNEPAGLYELDGQLGLCLAYQQFRGLRRVMRPGVCLQLQDVHLLQSVGGGTRRPVLAPCLRGAVLLQSFSRQKPGAHSSRQAYGASLYEQLVWERQLGLPLYLWATKALEELACKLCPHVLRHHQFLQHSSPGSPSLGLQLLAPTLDLLAPPGSPVRNAHNEILEEPHHCPLQKYTRLQTPSSFPTLATLKEEGQRKAWASFDPKALLPLPEASYLPSCQLNRRLAWSWLCLLPSAFCPAQVLLGVLVASSHKGCLQLRDQSGSLPCLLLAKHSQPLSDPRLIGCLVRAERFQLIVERDVRSSFPSWKELSMPGFIQKQQARVYVQFFLADALILPVPRPCLHSATPSTPQTDPTGPEGPHLGQSRLFLLCHKEALMKRNFCVPPGASPEVPKPALSFYVLGSWLGGTQRKEGTGWGLPEPQGNDDNDQKVHLIFFGSSVRWFEFLHPGQVYRLIAPGPATPMLFEKDGSSCISRRPLELAGCASCLTVQDNWTLELESSQDIQDVLDANKSLPESSLTDLLSDNFTDSLVSFSAEILSRTLCEPLVASLWMKLGNTGAMRRCVKLTVALETAECEFPPHLDVYIEDPHLPPSLGLLPGARVHFSQLEKRVSRSHNVYCCFRSSTYVQVLSFPPETTISIPLPHIYLAELLQGGQSPFQATASCHIVSVFSLQLFWVCAYCTSICRQGKCTRLGSTCPTQTAISQAIIRLLVEDGTAEAVVTCRNHHVAAALGLCPREWASLLDFVQVPGRVVLQFAGPGAQLESSARVDEPMTMFLWTLCTSPSVLRPIVLSFELERKPSKIVPLEPPRLQRFQCGELPFLTHVNPRLRLSCLSIRESEYSSSLGILASSC
In the case of B2, in assay [2], the “OGG1 lesion removal and phosphodiester cleavage on an 8-oxo-G substrate, fold increase with purified CTC1 (250-1500 nM; value at the highest concentration)” value came out at 3.1 fold. Further, in assay [1], the “Pol β DNA synthesis on a random sequence 66 nt gapped substrate, fold increase with purified CTC1” value was approximately 7 fold; the “Pol β dRP lyase activity, fold increase with purified CTC1 (250-1500 nM; value at the highest concentration)” value is approximately 7.5 fold; the “Pol β strand displacement synthesis on a 6-nt gapped substrate, fold increase with purified CTC1” value is 3 fold.

B3: Human CST complex (CTC1-STN1-TEN1) (complex)
chain 1: B2 chain
chain 2: MQPGSSRCEEETPSLLWGLDPVFLAFAKLYIRDILDMKESRQVPGVFLYNGHPIKQVDVLGTVIGVRERDAFYSYGVDDSTGVINCICWKKLNTESVSAAPSAARELSLTSQLKKLQETIEQKTKIEIGDTIRVRGSIRTYREEREIHATTYYKVDDPVWNIQIARMLELPTIYRKVYDQPFHSSALEKEEALSNPGALDLPSLTSLLSEKAKEFLMENRVQSFYQQELEMVESLLSLANQPVIHSASSDQVNFKKDTTSKAIHSIFKNAIQLLQEKGLVFQKDDGFDNLYYVTREDKDLHRKIHRIIQQDCQKPNHMEKGCHFLHILACARLSIRPGLSEAVLQQVLELLEDQSDIVSTMEHYYTAF
chain 3: B1 chain
B3: in assay [1], the “Pol β DNA synthesis on a random sequence 66 nt gapped substrate, fold increase with the CST complex” value is approximately 3 fold and the “Pol β dRP lyase activity, fold increase with the CST complex (7.5-45 nM; value at the highest concentration)” value is approximately 10 fold.

B4: Myc-STN1 (natural protein, human, UniProt Q9H668 1-368, looked up)
chain: B3 chain 2
As to B4, the “OGG1 lesion removal and phosphodiester cleavage on an 8-oxo-G substrate, fold increase with purified STN1 (250-1500 nM; value at the highest concentration)” value in assay [2] worked out at 4.3 fold. In assay [1], the “Pol β DNA synthesis on a random sequence 66 nt gapped substrate, fold increase with purified STN1” value was approximately 7 fold; the “Pol β dRP lyase activity, fold increase with purified STN1 (250-1500 nM; value at the highest concentration)” value was found to be 8 fold; the “Pol β strand displacement synthesis on a 6-nt gapped substrate, fold increase with purified STN1” value was found to be 3 fold.
